# Test results: paper PMC12369479
# Several values for one entry are separate records, joined by “and”; a condition that tells them apart may be missing. Equal entries are not always repeated.
# B1: ZmADK2 (Zea mays; T4S) (protein)
# chain: MAASEGVLLGMGNPLLDISAVVDDAFLTKYDIKLNNAILAEEKHLPMYDELASKSNVEYIAGGATQNSIRVAQWMLQTPGATSYMGCIGKDKFGEEMKKNAQAAGVTAHYYEDETAPTGTCAVCVVGGERSLIANLSAANCYKSEHLKRPENWALVEKAKYIYIAGFFLTVSPDSIQLVAEHAAANNKVFLMNLSAPFICEFFRDAQEKVLPYADYIFGNETEAKIFAKVRGWETENIEEIALKISQLPLASGKQKRIAVITQGADPVVVAEDGKVKTFPVILLPKEKLVDTNGAGDAFVGGFLSQLVLGKGIEDCVRAGCYAANVIIQRPGCTYPEKPDFN
# B2: ZmADK1 (Zea mays) (protein)
# chain: MAASEGVLLGMGNPLLDISAVVDDAFLAKYDIKLNNAILAEEKHSPMYDELASNSNVEYIAGGATQNSIRVAQWMLQTPGATSYMGCIGKDKFGEEMKKNAQAAGVTAHYYEDETAPTGTCAVCVVGGERSLIANLSAANCYKSEHLKRPENWALVEKAKYIYIAGFFLTVSPDSIQLVAEHAAANNKVFLMNLSAPFICEFFYDAQEKVLPYADFIFGNETEAKIFAKVRGWETENVEEIALKISQLPLASGKQKRIAVITQGADPVVVAEDGKVKTFPVILLPKEKLVDTNGAGDAFVGGFLSRLVQGKSIEDCVTAGCYAANVVIQRPGCTYPEKPDFN
# B3: PpADK2 (Physcomitrium patens) (protein)
# chain: MASEGVLLGMGNPLLDISCVVDEAFLEKYGLTLNNAILAEDKHLPIYKELAGRPDVEYIAGGATQNTIRIAQWMLREPKATSYIGCVGKDEFGDRMYKLASEGGVNIQYDVDEELPTGTCGVLVVKGERSLVANLSAAKKYKIDHLKKPENWVCVERAKFIYSSGFFLAVSPESMMTVARHAAETGKYYMINLAAPFICQFKDLMELFPYVDFIFGNESEARTFAQVQGWETEDTKIIAVKLAALPKASGTHKRVAVITQGTDPTIVSVDGQVTEIPITVIPKNKLVDTNAAGDAFVGGFLSQLVLGKDIVECVRAGNYASSIIIQRSGCTFPLKPCFQSE
# B4: PpADK1 (Physcomitrium patens) (protein)
# chain: MASEGVLLGMGNPLLDISCVVDDAFLEKYGLTLNNAILAEDKHLPMYKELAANPDVEYIAGGATQNTIRIAQWMLGESNATSYFGCVGKDEYGDRMFKLASEGGVNIRYDVDEDLPTGTCGVLVVKGERSLVANLSAANKYKIDHLKKPENWAFVEKAKYIYSAGFFLTVSPESMMTVAKHAAETGKYYMINLAAPFICQFFKDPLMELFPYVDFIFGNESEARAFAQVQGWETEDTKVIAVKLAALPKAGGTHKRVAVITQGTDPTIVAEDGKVTEFPVTPIPKEKLVDTNAAGDSFVGGFLSQLVLGKDIAQCVRAGNYAASVIIQRSGCTFPSKPSFESQ
# notes: made in house; host or cells: E. coli T7 Express Iq
# Columns and labels:
# [1] = substrate: Nc1ncnc2c1ncn2[C@@H]1O[C@H](CO)C[C@H]1O; assay: ADK activity, coupled reaction with PK and LDH; format: biochemical, Zea mays; settings: other: ZmADK2, 10 mM ATP, pH 7.5, 30 °C
# Experimental: (§1) Substrate analogs were purchased from Sigma-Aldrich (www.sigmaaldrich.com). The ADK activity was measured spectrophotometrically on an Agilent 8453 UV-Vis spectrophotometer (www.agilent.com) at 30 °C using a coupled reaction with pyruvate kinase (PK) and lactate dehydrogenase (LDH) (www.sigmaaldrich.com) ([Blondin et al., 1994]). In this assay, PK converts ADP produced by ADK and phosphoenolpyruvate (PEP) to pyruvate. Subsequently, LDH then converts pyruvate to lactate using the coenzyme NADH, with the conversion monitored at 340 nm. The reaction was conducted in 50 mM Tris–HCl buffer at pH 7.5, containing 50 mM KCl, 6 mM MgCl2, 300 µM PEP, 200 µM NADH, 10 mM ATP, 2 U of PK, and 2.5 U of LDH, using various nucleoside substrates. Kinetic constants were determined using GraphPad Prism 8.0 software (www.graphpad.com). Each measurement was performed six times using repetitive purified enzymes. The activities of all five ADKs were also measured by HPLC ([Moffatt et al., 1991]). The reaction mixture comprised 50 mM Tris–HCl pH 7.5, 5 mM MgCl2, 0.5 mM DTT, 30 mM NaF, 5 mM ATP, 40 µM substrate, and 2–150 ng of purified ADK, depending on the isoform. The reaction was incubated at 30 °C for up to 1 h. […] Similarly, the conversion of cytokinin ribosides to monophosphates was followed on a LiChrosphere 60 RP-Select B (5 µm) LiChroCART column 125-4 column equilibrated with 10 mM triethylamine at pH 5.4 plus 10% methanol, and stepwise eluted with 100% methanol.
# [2] = substrate: OC[C@H]1O[C@@H](n2cnc3c(O)ncnc32)[C@H](O)[C@@H]1O; assay: ADK activity, coupled reaction with PK and LDH; format: biochemical, Zea mays; settings: other: ZmADK2, 10 mM ATP, pH 7.5, 30 °C
# Experimental: as §1
# [3] = substrate: CC(C)=CCNc1ncnc2c1ncn2C1OC(CO)C(O)C1O; assay: ADK activity, coupled reaction with PK and LDH; format: biochemical, Zea mays; settings: other: ZmADK2, 10 mM ATP, pH 7.5, 30 °C
# Experimental: as §1
# [4] = substrate: O=c1[nH]c(=O)c2ncn([C@@H]3O[C@H](CO)[C@@H](O)[C@H]3O)c2[nH]1; assay: ADK activity, coupled reaction with PK and LDH; format: biochemical, Zea mays; settings: other: ZmADK2, 10 mM ATP, pH 7.5, 30 °C
# Experimental: as §1
# [5] = substrate: Nc1nc2c(ncn2[C@@H]2O[C@H](CO)[C@@H](O)[C@H]2O)c(=O)[nH]1; assay: ADK activity, coupled reaction with PK and LDH; format: biochemical, Zea mays; settings: other: ZmADK2, 10 mM ATP, pH 7.5, 30 °C
# Experimental: as §1
# [6] = substrate: Nc1ccn([C@@H]2O[C@H](CO)[C@@H](O)[C@H]2O)c(=O)n1; assay: ADK activity, coupled reaction with PK and LDH; format: biochemical, Zea mays; settings: other: ZmADK2, 10 mM ATP, pH 7.5, 30 °C
# Experimental: as §1
# [7] = substrate: Nc1ncnc2c1ncn2[C@@H]1O[C@H](CO)[C@@H](O)[C@H]1O; assay: ADK activity, coupled reaction with PK and LDH; format: biochemical, Zea mays; settings: other: ZmADK2, 10 mM ATP, pH 7.5, 30 °C
# Experimental: as §1
# [8] = substrate: Nc1ncnc2c1ncn2[C@@H]1O[C@H](CO)[C@@H](O)[C@@H]1O; assay: ADK activity, coupled reaction with PK and LDH; format: biochemical, Zea mays; settings: other: ZmADK2, 10 mM ATP, pH 7.5, 30 °C
# Experimental: as §1
# [9] = substrate: Nc1ncnc2c1ncn2[C@@H]1O[C@H](CO)[C@@H](O)[C@H]1O; assay: purified protein, by the assay type; settings: pH 7.5, 30 °C
# Experimental: The ADK activity was measured spectrophotometrically on an Agilent 8453 UV-Vis spectrophotometer (www.agilent.com) at 30 °C using a coupled reaction with pyruvate kinase (PK) and lactate dehydrogenase (LDH) (www.sigmaaldrich.com) ([Blondin et al., 1994]). In this assay, PK converts ADP produced by ADK and phosphoenolpyruvate (PEP) to pyruvate. Subsequently, LDH then converts pyruvate to lactate using the coenzyme NADH, with the conversion monitored at 340 nm. The reaction was conducted in 50 mM Tris–HCl buffer at pH 7.5, containing 50 mM KCl, 6 mM MgCl2, 300 µM PEP, 200 µM NADH, 10 mM ATP, 2 U of PK, and 2.5 U of LDH, using various nucleoside substrates. Kinetic constants were determined using GraphPad Prism 8.0 software (www.graphpad.com). […] The activities of all five ADKs were also measured by HPLC ([Moffatt et al., 1991]). The reaction mixture comprised 50 mM Tris–HCl pH 7.5, 5 mM MgCl2, 0.5 mM DTT, 30 mM NaF, 5 mM ATP, 40 µM substrate, and 2–150 ng of purified ADK, depending on the isoform. The reaction was incubated at 30 °C for up to 1 h. […] Similarly, the conversion of cytokinin ribosides to monophosphates was followed on a LiChrosphere 60 RP-Select B (5 µm) LiChroCART column 125-4 column equilibrated with 10 mM triethylamine at pH 5.4 plus 10% methanol, and stepwise eluted with 100% methanol.
# [10] = substrate: CC(C)=CCNc1ncnc2c1ncn2C1OC(CO)C(O)C1O; assay: ADK activity, coupled reaction with PK and LDH; format: biochemical, Physcomitrella patens; settings: other: PpADK1, 10 mM ATP, pH 7.5, 30 °C
# Experimental: (§2) Substrate analogs were purchased from Sigma-Aldrich (www.sigmaaldrich.com). The ADK activity was measured spectrophotometrically on an Agilent 8453 UV-Vis spectrophotometer (www.agilent.com) at 30 °C using a coupled reaction with pyruvate kinase (PK) and lactate dehydrogenase (LDH) (www.sigmaaldrich.com) ([Blondin et al., 1994]). In this assay, PK converts ADP produced by ADK and phosphoenolpyruvate (PEP) to pyruvate. Subsequently, LDH then converts pyruvate to lactate using the coenzyme NADH, with the conversion monitored at 340 nm. The reaction was conducted in 50 mM Tris–HCl buffer at pH 7.5, containing 50 mM KCl, 6 mM MgCl2, 300 µM PEP, 200 µM NADH, 10 mM ATP, 2 U of PK, and 2.5 U of LDH, using various nucleoside substrates. Kinetic constants were determined using GraphPad Prism 8.0 software (www.graphpad.com). Each measurement was performed six times using repetitive purified enzymes. The activities of all five ADKs were also measured by HPLC ([Moffatt et al., 1991]). The reaction mixture comprised 50 mM Tris–HCl pH 7.5, 5 mM MgCl2, 0.5 mM DTT, 30 mM NaF, 5 mM ATP, 40 µM substrate, and 2–150 ng of purified ADK, depending on the isoform. The reaction was incubated at 30 °C for up to 1 h. […]
# [11] = substrate: Nc1ncnc2c1ncn2[C@@H]1O[C@H](CO)[C@@H](O)[C@H]1O; assay: ADK activity, coupled reaction with PK and LDH; format: biochemical, Physcomitrella patens; settings: other: PpADK1, 10 mM ATP, pH 7.5, 30 °C
# Experimental: as §2
protein,measurement,setting,value
B1,Km,[1],170 µM and 173 ± 11 µM
same,kcat,[1],0.43 ± 0.01 s⁻¹
same,Km,[2],420 ± 44 µM
same,kcat,[2],0.57 ± 0.02 s⁻¹
same,Km,[3],9.8 ± 1.5 µM
same,Km,[4],178 ± 10 µM
same,kcat,[4],0.55 ± 0.01 s⁻¹
same,Km,[5],218 ± 23 µM
same,kcat,[5],0.48 ± 0.02 s⁻¹
same,Km,[6],313 ± 28 µM
same,kcat,[6],0.23 ± 0.01 s⁻¹
same,Km,[7],0.65 ± 0.09 µM
same,Km,[8],524 ± 51 µM
same,kcat,[8],0.24 ± 0.02 s⁻¹
B2,Km,"[9]; other: ZmADK1, 10 mM ATP",0.62 ± 0.11 µM
B3,Km,"[9]; other: PpADK2, 10 mM ATP",0.54 ± 0.05 µM
B4,Km,[10],12.1 ± 2.5 µM
same,Km,[11],0.71 ± 0.05 µM
